Test results from publication PMC3961177, “Photoactivated UVR8-COP1 Module Determines Photomorphogenic UV-B Signaling Output in Arabidopsis” (PLoS Genetics, 2014).
Residue numbers refer to the chain shown, from its start. In names and notes the source's numbering stands. Values belong to the binder of their own block, whether it stands above or below them.

Tests used:
[1] = target: T1, LexA fused wild-type UVR8 (UV … LOCUS 8) (Arabidopsis thaliana), Q9FN03; test: SDS-PAGE of unboiled extracts with immunoblot; total protein extracts of yeast EGY48 expressing LexA-UVR8, kept on ice under −UV-B or +UV-B for 20 min, loaded without boiling, anti-LexA immunoblot; conditions: remark: other sources report otherwise
T1 chain: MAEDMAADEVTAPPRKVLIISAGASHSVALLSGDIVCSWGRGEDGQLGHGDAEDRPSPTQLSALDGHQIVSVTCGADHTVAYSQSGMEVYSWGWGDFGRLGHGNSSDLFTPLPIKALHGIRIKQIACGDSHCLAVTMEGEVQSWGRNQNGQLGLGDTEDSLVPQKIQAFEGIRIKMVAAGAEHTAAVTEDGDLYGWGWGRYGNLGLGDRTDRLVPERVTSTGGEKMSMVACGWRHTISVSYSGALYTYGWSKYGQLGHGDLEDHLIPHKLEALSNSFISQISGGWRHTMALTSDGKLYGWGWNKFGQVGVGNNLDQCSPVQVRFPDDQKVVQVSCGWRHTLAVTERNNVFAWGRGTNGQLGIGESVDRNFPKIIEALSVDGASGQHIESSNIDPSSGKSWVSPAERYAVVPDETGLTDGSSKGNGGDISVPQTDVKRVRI

[2] = target: the molecule itself; test: as above
[3] = target: the molecule itself; test: SDS-PAGE of unboiled extracts with immunoblot; total protein extracts of 4-day-old transgenic seedlings grown under −UV-B or +UV-B, extracts kept on ice under the same condition for 30 min, loaded without boiling, anti-GFP immunoblot
[4] = target: T2, YFP-UVR8^WT (proUVR8-YFP-UVR8/uvr8-6) (Arabidopsis thaliana), Q9FN03; test: as above; conditions: remark: other sources report otherwise
T2 chain: T1 chain

B2: LexA fused UVR8^W285F (natural protein, Arabidopsis thaliana, UniProt Q9FN03 1-440, looked up)
chain: T1 chain with W285F
notes: UV … LOCUS 8 (UVR8), Arabidopsis thaliana; also called mUVR8; source: yeast strain EGY48, LexA fusion; in total protein extract (dimer/monomer assay) and yeast two-hybrid fusion
stoichiometry N [2]: 2

B3: YFP-UVR8^W285F (proUVR8-YFP-UVR8^W285F/uvr8-6) (natural protein, Arabidopsis thaliana, UniProt Q9FN03 1-440, looked up)
chain: T1 chain with W285F
notes: UV … LOCUS 8 (UVR8), Arabidopsis thaliana; The N-terminal place of YFP is read from the construct's name; source: transgenic Arabidopsis (native UVR8 promoter, uvr8-6 background), 4-day-old seedlings, in total protein extract; not shown: YFP, N-terminal, kept
stoichiometry N [3]: 2

The next lines start with the values.

stoichiometry N [1]: 2
B1: LexA fused wild-type UVR8 (UV … LOCUS 8), Q9FN03 1-440 (natural protein)
chain: T1 chain

stoichiometry N [4]: 2
B4: YFP-UVR8^WT (proUVR8-YFP-UVR8/uvr8-6), Q9FN03 1-440 (natural protein)
chain: T1 chain
